Assay [1] concerns the target recombinant soluble 1957 H2 HA (A/Japan/305+/1957) (Influenza A virus A/Japan/305+/1957 (H2N2)). Put plainly: ELISA, supernate. A general note: In an ELISA, binding on a coated surface is turned into a signal by an enzyme label.
In assay [2] the target is recombinant soluble 1968 H3 HA (A/Aichi/2/1968) (Influenza A virus A/Aichi/2/1968 (H3N2)) (UniProt P03437). Nature of the assay: ELISA, supernate.
For assay [3], the target named is recombinant soluble trimeric 1918 H1 HA (A/South Carolina/1/1918, wild type) (Influenza A virus A/South Carolina/1/1918 (H1N1)) (UniProt Q9WFX3). Put plainly: ELISA, supernate.
Assay [4] addresses recombinant soluble trimeric 2009 H1 HA (A/California/04/2009, wild type) (Influenza A virus A/California/04/2009 (H1N1)). Nature of the assay: ELISA, supernate.
In assay [5] the target is soluble 1999 H1 HA (seasonal 1999 H1N1) (Influenza A virus (H1N1, 1999)). Put plainly: ELISA, supernate.
For assay [6], the target named is soluble 2004 H5 HA (Influenza A virus (H5N1, 2004)). Nature of the assay: ELISA, supernate.
Assay [7] has as its target HA of A/Brisbane/59/2007 (H1N1) virus (Influenza A virus (H1N1)). Nature of the assay: cell-based or functional assay.
Assay [8] has as its target HA of A/California/04/2009 (H1N1) virus (Influenza A virus (H1N1)). Put plainly: cell-based or functional assay.
Assay [9] has as its target HA of A/L3/1947 (H1N1) virus (Influenza A virus (H1N1)). Put plainly: cell-based or functional assay.
Assay [10] concerns the target HA of A/New Caledonia/20/1999 (H1N1) virus (Influenza A virus (H1N1)). Put plainly: cell-based or functional assay.
Assay [11] addresses HA of A/New Jersey/11/1976 (H1N1) virus (Influenza A virus (H1N1)). Put plainly: cell-based or functional assay.
Assay [12] concerns the target HA of A/South Carolina/1/1918 (H1N1), wild type, on VLP (Influenza A virus A/South Carolina/1/1918 (H1N1)) (UniProt Q9WFX3). Nature of the assay: cell-based or functional assay.
For assay [13], the target named is HA of A/USSR/92/1977 (H1N1) virus (Influenza A virus (H1N1)). Put plainly: cell-based or functional assay.
The target in assay [14] is HA of A/Weiss/1943 (H1N1) virus (Influenza A virus (H1N1)). Nature of the assay: cell-based or functional assay.
The target of assay [15] is HA of A/swine/Iowa/15/1930 (H1N1) virus (Influenza A virus (H1N1)). Put plainly: cell-based or functional assay.
Assay [16] concerns the target recombinant soluble trimeric 2009 H1 HA (A/California/04/2009, wild type) (Influenza A virus A/California/04/2009 (H1N1)). Nature of the assay: biolayer interferometry (Octet Red), His-tagged HA on anti-Penta-HIS tips. (In BLI a coated tip is dipped into the sample, and binding shifts an interference pattern.)

The values that follow come from patent US20130289246A1.

The term Kd denotes the equilibrium constant for the complex coming apart. The term koff denotes a measure of how fast the partners let go of each other. Broadly, the kon is a measure of how fast the partners come together.

B1: mAb 8F24 (antibody, V domains shown)
VH: EVQLLESGGGLVQPGGSLRLSCAASGFAFSSYGMSWVRQAPGKGLEWVSAFSGSGTSTYYADSVKGRFTISRDKSKNTLYLQMNSLRAEDTAIYYCAKPPGPYIVVAGLFENWGRGTLVTVS
VL: EIVMTQSPATLSVSPGERVTLSCRASQSITDGLAWYQQKSGQAPRLLIYGASTRATGIPARFSGSGSGTEFTLTISSLQSEDFAVYYCQQYNNWPPVTFGQGTKVEIKR
For B1, the OD in assay [1] turned out to be 0.073 OD; in [2], 0.669 OD; in assay [3], 0.209 OD; in assay [4], 0.714 OD; in [5], 1.01 OD; in assay [6], 0.074 OD.

B2: mAb 25F7 (antibody, V domains shown)
VH: EVQLLESGGGLVQPGGSLRLSCAASGFAFSSYGMSWVRQAPGKGLEWVSAFSGSGTSTYYADSVKGRFTISRDKSKNTLYLQMNSLRAEDTAIYYCAKPPGPYIVVAGLFENWGRGTLVTVS
VL: QSVLTQPPSVSGAPGQRVTISCTGTSSNIGAGYEVHWYQQLPGTAPKLIINANTNRPSGVPDRFSGSQSGTSASLAITGLRAEDEADYYCQSFDSSLSGWLFGGGTKLTVLG
With B2, the OD in [1] worked out at 0.871 OD; in assay [2], 0.085 OD; in assay [3], 0.075 OD; in [4], 0.078 OD; in assay [5], 0.077 OD; in assay [6], 0.076 OD.

B3: mAb 10E15 (antibody, V domains shown)
VH: EVQLLESGGGVVQPGRSLRLSCAASGFTFRTYGMHWVRQAPGKGLEWVAVISHDGNLKYYGGSVKGRFTISRDNSKNALYLQMNSLRVDDTALYYCARGIGITDAFDIRGQGTMVVVS
VL: QSVLTQPPSVSAAPGQKVTISCSGSSSNIGKNYVSWYQQLPGTAPKLLIYDNDKRPSGIPDRFSGSKSGTSATLGITGLQTGDEADYHCGAWDSSLNGGVFGGGTKVTVLG
On to B3, for which the OD was 0.485 OD in assay [1], 0.996 OD in assay [4], 0.514 OD in assay [5] and 1.69 OD in [6].

B4: mAb 4K8 (antibody, V domains shown)
VH: EVQLVESGGGLVQPGGSLRLSCAASEFNFKSYWMTWVRQAPGKGLEWVANINQDGSEKNYVDSVKGRFTISRDNAKNSLHLQMSSLRVDDTAVYYCARTGSSWDTYYYYYAMDVWGQGTTVTVS
VL: DIQLTQSPVSLSLSPGERATLSCRASQSVSSSYLVWYQQKPGQAPRLLIYGASSRAPGIPDRFSGSGSGTDFTLTISRLEREDFAVYYCQQYGRSFGQGTKVEIKR
Consider B4, for which the HAI activity in [7] is more than 20 µg/mL; in [8] it was less than 0.01 µg/mL; in assay [9], more than 20 µg/mL; in assay [10], more than 20 µg/mL; in assay [11] it was 0.16 µg/mL; in assay [12], less than 0.01 µg/mL. The HAI activity in assay [13] is 0.32 µg/mL; in [14], more than 20 µg/mL; in [15] it was less than 0.01 µg/mL.

B5: mAb 2K11 (antibody, V domains shown)
VH: EVQLVESGGGLVQPGGSLRLSCVASTFSLINYWMTWVRQAPGKGLEWVANIKQDGFEKYYVDSVKGRFTISRDNAKNSLYLQMNSLRVEDTAVYYCARQGSYADTYFYHYGMDVWGQGTTVTVS
VL: QSALTQPPSVSGAPGQRVTISCTGSSSNIGAGYDAYWYQQLPGTAPKLLIYGNSNRLSGVPDRFSASKSGTSASLAITGLQAEDEADYYCQSYDSSLSIFGGGTKLTVLR
On to B5, for which the OD was 0.08 OD in assay [1], 1.28 OD in assay [4], 0.518 OD in assay [5] and 0.075 OD in assay [6].

B6: mAb 11J19 (antibody, V domains shown)
VH: EVQLQESGPGLVKPSETLSLSCTVSGGSITRSSYYWGWIRQPPGKGLEWIGNIYYSGTTYYNPSLKSRVTISVDTSKNQFSLKLSSVTAADTAVYYCARLYGSGLDYWGQGTLVTVS
VL: DIQLTQSPSFLSASVGDRVTITCRASQGSSRYVAWYQQKPGKAPKLLILAASTLHTGVPSRFSGSGSGTEFTLTISSLQPEDFATYSCQQLNGFLLTFGGGTKVEIKR
Regarding B6, the OD in assay [1] amounted to 0.079 OD; in [4] it was 0.081 OD; in [5], 0.071 OD; in [6], 0.067 OD.

B7: mAb 3E22 (antibody, V domains shown)
VH: EVQLVESGAEVKKPGASVKVSCKASGYTFSRYYIHWVRQAPGQELEWMGWINPDSGDTNYAQKFRGRVTMARDTSISTVYMELNSLRYDDTAVYFCARIIWSSSGMDVWGQGTTVTVS
VL: QSALTQPASVSGSPGQSITISCTGTSSDVGSYNLVSWYQQHPGKAPKLMIYEVSKRPSGVSNRFSGSKSGNTASLTISGLQAEDEADYYCHLYVGSSNWVFGGGTKLAVLG
As for B7, the OD in assay [1] was 1.18 OD; in assay [4], 2.38 OD; in assay [5] it was 2.06 OD; in [6] it was 1.57 OD.

B8: mAb 5J8 (antibody, V domains shown)
VH: EVQLVESGPGLVKPSDILSLTCAVSGYSISSNYYWGWIRQPPGKGLEWIGSIYHSGSTYYKPSLESRLGISVDTSKNQFSLKLSFVSAADTAVYYCARHVRSGYPDTAYYFDKWGQGTLVTVS
VL: SYVLTQPPSVSVAPGETARISCGGNNIGTKVLHWYQQTPGQAPVLVVYDDSDRPSGIPERFSGSNSGNTATLTISRVEVGDEADYYCQVWDISTDQAVFGGGTKLTVLG
In the case of B8, the OD came out at 0.077 OD in assay [1], 1.93 OD in [4], 1.46 OD in assay [5] and 0.077 OD in assay [6].

B9: 5J8 Fab (Fab, V domains shown)
VH: EVQLVESGPGLVKPSDILSLTCAVSGYSISSNYYWGWIRQPPGKGLEWIGSIYHSGSTYYKPSLESRLGISVDTSKNQFSLKLSFVSAADTAVYYCARHVRSGYPDTAYYFDKWGQGTLVTVS
VL: SYVLTQPPSVSVAPGETARISCGGNNIGTKVLHWYQQTPGQAPVLVVYDDSDRPSGIPERFSGSNSGNTATLTISRVEVGDEADYYCQVWDISTDQAVFGGGTKLTVLG
On to B9, for which, in assay [16], the Kd came to 26 nM, the koff was 0.0065 s⁻¹ and the kon was determined as 250000 M⁻¹ s⁻¹.

B10: mAb 25J3 (antibody, V domains shown)
VH: QVQLQESGPGLVRPSETLSLTCNVSGDSINDYYWSWIRQPPGKGLEWIGYIYYSGSTNYNPSLNSRVTISVEMSKNQFSLILNSVTAADTAVYYCARVDYDSGGSFDPWGQGTLVTVS
VL: QSVLTQPPSVSGAPGQRVTISCTGSSSNIGAGYDVHWYQQLPGTAPKLLIYGNSNRPSGVPDRFSGSKSGTSASLAITGLQAEDEADFYCQSYDSRLSGYVFGTGTKVTVLG
For the molecule B10, the OD in [1] was found to be 0.07 OD; in [4] it was 0.071 OD; in [5], 0.071 OD; in assay [6], 0.07 OD.

B11: mAb 3J10 (antibody, V domains shown)
VH: EVQLVESGGGVVQPGRSLRLSCAASGFSFSNYAMHWVRQAPGKGLEWVALISFDGSDKYYADSVKGRFTMSRDNSKNTLYLQMNSLRAEDTAVYYCARDEPYCGGDCFAFDVWGQGTMVTVS
VL: QSVLTQPPSVSGAPGQRVTISCTGSSSNIGAGYDVHWYQQLPGTAPKLLIYANNNRPSGVPDRFSGSKSGTSASLAITGLQAEDEADYYCQSYDSSLSGGVFGTGTTVTVLG
As for B11, the OD in [1] came to 0.074 OD; in assay [2], 0.076 OD; in assay [3], 0.069 OD; in assay [4], 0.073 OD; in assay [5], 0.711 OD; in assay [6] it was 0.075 OD.

B12: mAb 18G6 (antibody, V domains shown)
VH: QVQLKESGPGLVKPSETLSLTCTVSGGSISSSNYNWGWIRQPPGKGLEWIGSVYYSGSTYFNPSLKSRVTISVDTSKNQFSLKLTSVTAADTAVYYCARLIAFYYDTNGYTWGQGTLVTVS
VL: NSIMTQSPFTLSASVGDKVTITCRASQSISPWLAWYQQKPGKAPKLLIYKASSLETGVPSRFSGSESGTEFTLTISGLQPDDFATYYCQQYSSFARTFGQGTKVEIKR
B12: the OD in assay [1] was found to be 0.757 OD; in assay [4], 0.071 OD; in assay [5] it was 0.071 OD; in [6], 0.071 OD.

B13: mAb 2O10 (antibody, V domains shown)
VH: EVQLVESGGGLVQPGGSLRLSCAASGFTFNSYWMTWVRQAPGKGLEWVANINQDGSEKFFVDSVKGRFTISRDNAKTSLYLQMNSLRVEDTAVYYCAREGAPYDTYYYYYAMDVWGQGTTVTVS
VL: QSVLTQPPSVSGAPGQRVTISCTGTSSNIGAGYGVHWYQQLPGAAPKLLVYGNSNRPSGVPDRFSGSKSGTSASLAITGLQAEDEADYYCQSYDISLSGSNVFGTGTKVTVLG
B13: the OD is 0.073 OD in assay [1], 1.62 OD in assay [4], 0.872 OD in assay [5] and 0.072 OD in assay [6].

B14: mAb 6K14 (antibody, V domains shown)
VH: EVQLVESGAEVKKPGASVKVSCKASGYTFTSFDINWVRQAPGQGLEWMGWMTPTSGKTGYAQKFQGRITMTRNTSINTAYMELSSLRSEDTAVYFCARGPERRTTIFDVILDWFDPWGQGTLVTVS
VL: DIVMTQSPFSLSLSPGERATLSCRASQSISNYLAWYQQKPGQAPRLLIYDSSNRATGVPARFSGSGSGTDFTLTISSLEPEDFAVYYCQQRSNWMYTFGQGTKVEIKR
As to B14, the OD in assay [1] came to 1.93 OD; in assay [4] it was 2.12 OD; in [5], 0.203 OD; in assay [6], 1.12 OD.
